{"source": "the DeepSol protein solubility set", "data": [{"assay": "soluble on expression in E. coli; label from the status in PepcDB or PDB records", "values": [{"sequence": "MGSDKIHHHHHHMLLNLFNEMRAAKVPVSVRELLDLIDALKHRVVFADMDEFYYLARTIMVKDERHFDKFDRAFGAYFKGLEKLDDHLKALIPEEWLRKEFERLLTDEEKAQIQSLGGLDKLIEEFKKRLEEQKERHAGGNKWIGTGGTSPFGSGGFNPEGIRVGDAGKRQGKAAKVWDQREYKNLDDQVELGTRNIKIALRRLRKFAREGAAEELDIDGTIDHTAKDAGLLNIQMRPERRNTVKLLLLLDIGGSMDAHVKVCEELFSACKTEFKHLEYFYFHNFIYESVWKNNLRRSSERTATFDLLHKYGPDYKVVFVGDAAMAPYEITQAGGSVEHWNEEAGYVWMQRFMEKYKKLIWINPYPKDTWNYTASTGLVRELVKEQMYPLTLSGLEEGMRFLSRG", "soluble on expression in E. coli": "not soluble"}, {"sequence": "MAQSEISKREKGRALITVANNVAGFNLWKRLVEEGYDVDAILPSEDKYNLLLSELVSRKNKKYDFIVNTVDRHDYAVVTNKMLKWLYPTEKIIFISSDLVYEPRPGKKKENDNAYPPTMEGKYFLEAESALDVNSDLVLRVGLVTGRCVPNILTNTINLSRANMSIDLSGAVVRNFISNADLSEYIIRLLDKNGIYNASAKSMTPRDFALELCAKINVNCKLRRTTDDKVFDYSMDTTKIELTTGYYTKDIFANISSGLYLLG", "soluble on expression in E. coli": "soluble"}, {"sequence": "MNKKILIIDDNKMLGKLLAKKIQMTLDYEVDIAFGFAEAKELMNNDYFLAFVDLCLPDAPNGEVVDYVIEKKIPAIVLTASGDKATKEKFMDKDILDYIFKESETCIDEIISSIVKLNQYAKTKVIVAMSKLPERNEIKKILTQRQFNVLAAAHGEEAMSYLNDNNDVKLIIADVNMPVISGFELLTQVRERFSDDELGVILLGDHNDSFEANSFKNGVNEYLFKPLSKESFNCRLDRCLSYMDDKKFLSTYNVLDPVSGVKNYNALIDGIDDYFNEIATKDEEFAFAFLDIDNLQMINDEYGREVGDEVIKICANEIVNETKGRDLVGRYSAEKICILLKNISQERAIKIFSRIRVNIKKAGVLVNLDEVFFTASIGVVFGKSGDKIDSLADKASKILSQAKDNGKDRVEVCS", "soluble on expression in E. coli": "soluble"}, {"sequence": "MSLRGLSTDHTTQIVNLEDNTQDLLLLLSLFKKITNVNPSKNFNVILASSLNEVGTLKVILNLYSSAHLIRINDEPILGQITLTFISELCSIEPIAAKLINSGLYSVLLESPLSVAIQQGDIKPEFSPRLHNIWSNGLLSIVLLLLSQFGIKVLPETCLFVSYFGKQIKSTIYNWGDNKLAVSSSLIKETNQLVLLQKMLNLLNYQELFIQPKNSDDQQEAVELVIGLDSEHDKKRLSAALSKFLTHPKYLNSRIIPTTLEEQQQLEDESSRLEFVKGISRDIKALQDSLFEGHHHHHH", "soluble on expression in E. coli": "not soluble"}, {"sequence": "MSLKNTGYILALCLTASGHVLAHDVWITGKQAENNVTAEIGYGHNFPSKGTIPDRRDFFENPRLYNGKETITLKPASTDYVYKTESASKDNGYVLSTYMKPGYWSRTSSGWKPVSREGRNDVAYCEFVTKYAKSFIPGEQQMPAQLYQSPTGHELEIIPLSDISRFSENVKLKVLYKTSPLAGAIMELDSVSYLTSSRHTHAVEHKHPVHKAELTFVTNEDGIVTVPSLHIGQWLAKVQNKKSFQDKSLCDETVDVATLSFSRNEGHHHHHH", "soluble on expression in E. coli": "soluble"}, {"sequence": "MSLGADRSAPMTARIDQLLLERLKSAGVEPAPAADDGEFLRRAYLDLSGTIPPVAITRDYLADSSPAKRRQLIERLLASPAFASHLASTWREIILKPTDDFQQLQNQFALQAWLREQFSENARYDRIVEQFITASSEQDGPVYFYDALDLKPEQLAAETSRIFLGLHIQCAECHDHPFDDWKQRDFWGYAAFFARVAKRDSAMGRISLVDQEMGEVKIPESEETVAPLYPGGSAPSDRFGGTRRQKLAVWMVARDNPYTARRAVNWAWAHLFGRGLVEPVDDLSPLNAPSHPALMEELTQYFIDSGYDLRQLLRTLAMTDAYARSSQNVDGQRPELFANMAIKSLSPEQLYDAILRLGLIRETVGDLSSQAPQPFDRSQQRLQFVARMRTVSLDRTDFETGAPQALALMNGPPVSLATAPETSGFLKSLEAPFFSDEQRVELIALAAYSRQPTAEERQRFSEYLATASPNEKKQALGDLLWAVAASAEFMLNEGHHHHHH", "soluble on expression in E. coli": "not soluble"}, {"sequence": "MTIENDYAKLKELMEFPAKMTFKVAGINREGLAQDLIQVVQKYIKGDYIPKEKRSSKGTYNSVSIDIIAENFDQVETLYKELAKVEGVKMVI", "soluble on expression in E. coli": "not soluble"}, {"sequence": "ELASDVYNKRIWIKDMQADKGKVQLMKGLYWYFDKDPHLLLGGGTGGGKTFTILSLIYALCRVGEMEICDPKNSDLMALGKLPMFAGKVHTGKTDIVNCLKNAVELMNARFEMMNNSPDYKMGKNYAYYGLKPKFIVIDEFAAFKAELANDYSTDGEVDEYLTQLILKARQCGIFLIVAMQRPDG", "soluble on expression in E. coli": "not soluble"}, {"sequence": "MGSDKIHHHHHHENLYFQGMKTIVIEDKQRIESIILQADACFVGITDLEGNPYVVPMNFGYENDTLYLHSGPEGGKIEMLQRNNNVCITFSLGHKLVYQHKQVACSYSMRSESAMCRGKVEFIEDMEEKRHALDIIMRHYTKDQFSYSDPAVRNVKVWKVPVDQMTGKVFGLRADEKP", "soluble on expression in E. coli": "soluble"}, {"sequence": "MGDDCSDHSSLCKHCCYEMIRDSIKDYKSGPLYARCPQCFRNISSLTRRKRRLTSEGHDENCPAPMVPMVNAEHSISLCDYTTSMMGGGQVNKGFESSSSLFLCFRKFPIGNYNQKFFVGDSLKNGRIQYRNTKYEYSKKHFRSYKFFMIFQICRSKFQNL", "soluble on expression in E. coli": "not soluble"}, {"sequence": "MSLYVSKLFTSQQWRELKLISYVTENADAIGVKDKELSKALNISMLTLQTCLTNMQFMKEVGGITYKNGYITIWYHQHCGLQEVYQKALRHSQSFKLLETLFFRDFNSLEELAEELFVSLSTLKRLIKKTNAYLMHTFGITILTSPVQVSGDEHQIRLFYLKYFSEAYKISEWPFGEILNLKNCERLLSLMIKEVDVRVNFTLFQHLKILSSVNLIRYYKGHSAVYDNKKTSQRFSQLIQSSLEFQDLSRLFHLKFGLYLDETTIAEMFSNHVNDQLEIGYAFDSIKQDSPTGCRKVTNWVHLLDELEIRLNLSVTNKYEVAVILHNTTVLKEEDITANYLFFDYKKSYLNFYKQEHPHLYKAFVAGVEKLMRSEKEPISTELTNQLIYAFFITWENSFLKVNQKDEKIRLLVIERSFNSVGNFLKKYVGEFFSITNFNELDALTIDLEEIEKQYDVIVTDVMVGKSEELEIFFFHKMIPEAIIDKLNAFLTSALQQEGHHHHHH", "soluble on expression in E. coli": "soluble"}, {"sequence": "MGSDKIHHHHHHMQPEFNRPEFLEGNSAEEIHERMMNNLPDDIDDMPGGFPYDMTMPAALEKDEIINFHIVRALMIAFPEYAWDEWLDLHGRQVHLTRHEAEPAFGYVKITAAEGTEILSGTVFCTAATETGPSIEYATTEDVVVGGEGSVLIPVSAVEAGTGSNVAANTVVLMMVPDKNVTEINNPEPIRGGTERETDDDFYDRIAAEYDNSMTYLGNDTDYKRWAKQAGAGDAIVISTWNGPGTVKLVLVDGNGKPANAKLVQDVYNYIVSPNDRSARLLPTGTAELTCAAATTVAVNYVIAGLSYDETTGIEQIKADFTEAVRAVYAQAKTEGVLRYNDVRPLISAIAGVEDFETFTMNGKMQNITLKSEEYPDTGTLNFS", "soluble on expression in E. coli": "not soluble"}, {"sequence": "FLILGTLFSSSLYADIDNAPLHALAKHQGFFFFFSSSCPHCQRFAPTLKRLSQHYGFSVVAISVDGGFLPSFPDAVMNEGQTKVFQVSVYPSLFLINPKSQVASLVTEGTIDEGELTNRLLKI", "soluble on expression in E. coli": "not soluble"}, {"sequence": "MNNSNRIIPFAFKSSEHGSYEDEMMEMEDVVDVEDYMGGEKYDSYNDAKEDIKDFKTTQRMKKIHRMEKIEQNIASEKIDIIELGTRVMVSTSDKTLNEASLERTIRCGISEATFLGDISMESLVEGMVNPSAADGRFAMLGTSIMLNALKSNIKDLRGTIVGQTTNTNSESKFDKIDLSLMNLSHCQQTSYNIRATGVFSNADLQYVFSLLTFRRNAKLLNKTKQFIKAYFCVACRPRCMIWRYTLRRAGNSQRRAILNLPSAIVSTITQFLLDLTGISDANIPYDQLDPMTPLSISLGEDESMRVQRYEEACRLKDPLTRFFRDAITDCLNELREMPFCLNTGILLSPLRGREQGTSCVTWKDYEGFLKREHDLPSEANMKKRTQFEQRLCDIIPRVRRPVPN", "soluble on expression in E. coli": "not soluble"}, {"sequence": "MNHKVHHHHHHIEGRHMKVLILGAGNIGRAIAWDLKDEFDVYIGDVNNENLEKVKEFATPLKVDASNFDKLVEVMKEFELVIGALPGFLGFKSIKAAIKSKVDMVDVSFMPENPLELRDEAEKAQVTIVFDAGFAPGLSNILMGRIFQELDLKEGYIYVGGLPKDPKPPLYYKITWSPRDLIEEYTRPARVIRNGKVSKVDPLSEVKKVKIGKFEFEAFISDGLRSMLETINSERLEEWTLRWPGHLEKIKVLRELGFFKPENLDFTLRVIEPLMRYETKDFSIMKVVGKGEEGEMEFFLYDEEDSMFSSMSRVTGFTAAIISRIVAENTCTFGVIPPEILGMREDTFRRIIDELKERGISIEGT", "soluble on expression in E. coli": "soluble"}, {"sequence": "MSLGLKIEEARVIVCCPGRNFVTLKIITNEGIYGLGDATLNGRELSVVSYLEDHVIPCLIGRDPHQIEDIWQFLYRGAYWRRGPITMSAIAAVDTALWDIKAKAAGLPLYQMLGGKSRTGVMVYGHANGRDIEETVEEVGRYIEIGYQAVRAQCGIPGLPSTYGVSNDKMFYEPADADLPSENIWSTSRYLDHVPKLFEKLRQVHGWDVHLLHDVHHRLTPIEAARLGQSLEPMRLFWLEDIVPAENQEGFRIIRNHTTTPLAVGEVFNTIWDCKNLIEEQLFDYIRSTVVHAGGITHLRRIADLAGLYHVKTGCHGATDLSPVCMGAALNFDLWVPNFGIQEYMRHAEITNEVFPHHYNFSNGFLHPGESPGHGVDLDEKLAAKYPYQRAYLPVNRLEDGTMWNWEGHHHHHH", "soluble on expression in E. coli": "not soluble"}, {"sequence": "MGSDKIHHHHHHMLYPVKLLKDLVQIKTANPPGSEYESISFYLKDLFNDLGFQIQLIEIPEEYMDKYYIYSPSHKGNKRIIVIAKNSPNPILHFNFHYDVVPPGDGWLTNPFELKVVDNKAYGRGTSDMKGSIVSLYLALSRFNDLPIEIVFVPDEESGGIGTKYLTEEIRIAPSTAIFGEPSFPNVYIGHLGIVRGIIKIFGKQAHASNPKDGINAFLLASKLALKLQEKLGNEIVNLGGYTLNPTNNDGIVPGFFAFSYYRAIPPHDNRTPEFDKNVIDTTAREVGIEYNFEIKSFISGSVSNPDSSVAKAFKFCITSTLNVVPKELISNIRYDAVFYKNLDSINFGPGSLDQAHVPNEYVELDNIEKTIVIYECVMKRIYFNNYR", "soluble on expression in E. coli": "not soluble"}, {"sequence": "MSLMYKVLLVDDEYMILQGLTMIIDWQALGFEVVQTARSGKEALTYLTQYPVDVMISDVTMPGMTGLDLIEAAKTYHPQLQTLILSGYQEFSYVQKAMELETKGYLLKPVDKAELQAKMKQFKDCLDAQQAESIRQEAYHDSLLTLWLTDELSEKEFQQLSQGLPAAALIGFTVLYLDCQEWQAAIDAYFEQEGQPFYLKKEEDKKVYLAVLLGKTDQAKAFTYDLQKRFSRNMHQLILGETVDDWENVYESYNQVLKSLFYNCEVSPIRAKDKSKIELPESRLQFFAFNKALMIGDEPTILSKLEAIFDEMKTLNFSPEDVKHVSFLLFSDIYRQFPILDKMTYLSMVKTIHDSQSIDRILRELKKVLDVTNQNNSPEKRYSDLVSETIDCIRKEYHQELTLKAIADRLHVNGVYLGQCFKNETERSFTQYLNHVRIQKAQQLLLYTNQSINEIAYETGYNTNHYFIKMFKKLNGLSPKEFRDRYKDNYQAEGHHHHHH", "soluble on expression in E. coli": "soluble"}, {"sequence": "MSATTTLKEQVLTTLKREQANAVVMYLNYKKYHWLTYGPLFRDLHLLFEEQGSEVFAMIDELAERSLMLDGQPVADPADYLKVATVTPSSGQLTVKQMIEEAIANHELIITEMHQDAEIATEAGDIGTADLYTRLVQTHQKHRWFLKEFLAKGDGLVS", "soluble on expression in E. coli": "soluble"}, {"sequence": "MSLKLLIEEFIPVEEISEEAKKEKLGNAKPPIFSLHYWWARKPLITARAAVLGALISKENLPMIVGNGDLKTNLLRILRIPKDINEGPRAHTQDPPAEYLKEAIIKTWGEIPTVLDPFAGGGSIPFEALRLGCNAVAVDYNPVAYLILKETLEYPKKYGMKLILEGHHHHHH", "soluble on expression in E. coli": "not soluble"}]}]}
